How the values were obtained:
Assay in all cases: cryo-EM structure
[1] = molecular target: 3×FLAG-tagged full-length mouse BIRC6 (mouse) (UniProt O88738)
[2] = molecular target: 3×FLAG-tagged full-length mouse BIRC6 (mouse, UniProt O88738 1-4882)
[3] = molecular target: the molecule itself

Sequence of 3×FLAG-tagged full-length mouse BIRC6 (O88738 whole entry): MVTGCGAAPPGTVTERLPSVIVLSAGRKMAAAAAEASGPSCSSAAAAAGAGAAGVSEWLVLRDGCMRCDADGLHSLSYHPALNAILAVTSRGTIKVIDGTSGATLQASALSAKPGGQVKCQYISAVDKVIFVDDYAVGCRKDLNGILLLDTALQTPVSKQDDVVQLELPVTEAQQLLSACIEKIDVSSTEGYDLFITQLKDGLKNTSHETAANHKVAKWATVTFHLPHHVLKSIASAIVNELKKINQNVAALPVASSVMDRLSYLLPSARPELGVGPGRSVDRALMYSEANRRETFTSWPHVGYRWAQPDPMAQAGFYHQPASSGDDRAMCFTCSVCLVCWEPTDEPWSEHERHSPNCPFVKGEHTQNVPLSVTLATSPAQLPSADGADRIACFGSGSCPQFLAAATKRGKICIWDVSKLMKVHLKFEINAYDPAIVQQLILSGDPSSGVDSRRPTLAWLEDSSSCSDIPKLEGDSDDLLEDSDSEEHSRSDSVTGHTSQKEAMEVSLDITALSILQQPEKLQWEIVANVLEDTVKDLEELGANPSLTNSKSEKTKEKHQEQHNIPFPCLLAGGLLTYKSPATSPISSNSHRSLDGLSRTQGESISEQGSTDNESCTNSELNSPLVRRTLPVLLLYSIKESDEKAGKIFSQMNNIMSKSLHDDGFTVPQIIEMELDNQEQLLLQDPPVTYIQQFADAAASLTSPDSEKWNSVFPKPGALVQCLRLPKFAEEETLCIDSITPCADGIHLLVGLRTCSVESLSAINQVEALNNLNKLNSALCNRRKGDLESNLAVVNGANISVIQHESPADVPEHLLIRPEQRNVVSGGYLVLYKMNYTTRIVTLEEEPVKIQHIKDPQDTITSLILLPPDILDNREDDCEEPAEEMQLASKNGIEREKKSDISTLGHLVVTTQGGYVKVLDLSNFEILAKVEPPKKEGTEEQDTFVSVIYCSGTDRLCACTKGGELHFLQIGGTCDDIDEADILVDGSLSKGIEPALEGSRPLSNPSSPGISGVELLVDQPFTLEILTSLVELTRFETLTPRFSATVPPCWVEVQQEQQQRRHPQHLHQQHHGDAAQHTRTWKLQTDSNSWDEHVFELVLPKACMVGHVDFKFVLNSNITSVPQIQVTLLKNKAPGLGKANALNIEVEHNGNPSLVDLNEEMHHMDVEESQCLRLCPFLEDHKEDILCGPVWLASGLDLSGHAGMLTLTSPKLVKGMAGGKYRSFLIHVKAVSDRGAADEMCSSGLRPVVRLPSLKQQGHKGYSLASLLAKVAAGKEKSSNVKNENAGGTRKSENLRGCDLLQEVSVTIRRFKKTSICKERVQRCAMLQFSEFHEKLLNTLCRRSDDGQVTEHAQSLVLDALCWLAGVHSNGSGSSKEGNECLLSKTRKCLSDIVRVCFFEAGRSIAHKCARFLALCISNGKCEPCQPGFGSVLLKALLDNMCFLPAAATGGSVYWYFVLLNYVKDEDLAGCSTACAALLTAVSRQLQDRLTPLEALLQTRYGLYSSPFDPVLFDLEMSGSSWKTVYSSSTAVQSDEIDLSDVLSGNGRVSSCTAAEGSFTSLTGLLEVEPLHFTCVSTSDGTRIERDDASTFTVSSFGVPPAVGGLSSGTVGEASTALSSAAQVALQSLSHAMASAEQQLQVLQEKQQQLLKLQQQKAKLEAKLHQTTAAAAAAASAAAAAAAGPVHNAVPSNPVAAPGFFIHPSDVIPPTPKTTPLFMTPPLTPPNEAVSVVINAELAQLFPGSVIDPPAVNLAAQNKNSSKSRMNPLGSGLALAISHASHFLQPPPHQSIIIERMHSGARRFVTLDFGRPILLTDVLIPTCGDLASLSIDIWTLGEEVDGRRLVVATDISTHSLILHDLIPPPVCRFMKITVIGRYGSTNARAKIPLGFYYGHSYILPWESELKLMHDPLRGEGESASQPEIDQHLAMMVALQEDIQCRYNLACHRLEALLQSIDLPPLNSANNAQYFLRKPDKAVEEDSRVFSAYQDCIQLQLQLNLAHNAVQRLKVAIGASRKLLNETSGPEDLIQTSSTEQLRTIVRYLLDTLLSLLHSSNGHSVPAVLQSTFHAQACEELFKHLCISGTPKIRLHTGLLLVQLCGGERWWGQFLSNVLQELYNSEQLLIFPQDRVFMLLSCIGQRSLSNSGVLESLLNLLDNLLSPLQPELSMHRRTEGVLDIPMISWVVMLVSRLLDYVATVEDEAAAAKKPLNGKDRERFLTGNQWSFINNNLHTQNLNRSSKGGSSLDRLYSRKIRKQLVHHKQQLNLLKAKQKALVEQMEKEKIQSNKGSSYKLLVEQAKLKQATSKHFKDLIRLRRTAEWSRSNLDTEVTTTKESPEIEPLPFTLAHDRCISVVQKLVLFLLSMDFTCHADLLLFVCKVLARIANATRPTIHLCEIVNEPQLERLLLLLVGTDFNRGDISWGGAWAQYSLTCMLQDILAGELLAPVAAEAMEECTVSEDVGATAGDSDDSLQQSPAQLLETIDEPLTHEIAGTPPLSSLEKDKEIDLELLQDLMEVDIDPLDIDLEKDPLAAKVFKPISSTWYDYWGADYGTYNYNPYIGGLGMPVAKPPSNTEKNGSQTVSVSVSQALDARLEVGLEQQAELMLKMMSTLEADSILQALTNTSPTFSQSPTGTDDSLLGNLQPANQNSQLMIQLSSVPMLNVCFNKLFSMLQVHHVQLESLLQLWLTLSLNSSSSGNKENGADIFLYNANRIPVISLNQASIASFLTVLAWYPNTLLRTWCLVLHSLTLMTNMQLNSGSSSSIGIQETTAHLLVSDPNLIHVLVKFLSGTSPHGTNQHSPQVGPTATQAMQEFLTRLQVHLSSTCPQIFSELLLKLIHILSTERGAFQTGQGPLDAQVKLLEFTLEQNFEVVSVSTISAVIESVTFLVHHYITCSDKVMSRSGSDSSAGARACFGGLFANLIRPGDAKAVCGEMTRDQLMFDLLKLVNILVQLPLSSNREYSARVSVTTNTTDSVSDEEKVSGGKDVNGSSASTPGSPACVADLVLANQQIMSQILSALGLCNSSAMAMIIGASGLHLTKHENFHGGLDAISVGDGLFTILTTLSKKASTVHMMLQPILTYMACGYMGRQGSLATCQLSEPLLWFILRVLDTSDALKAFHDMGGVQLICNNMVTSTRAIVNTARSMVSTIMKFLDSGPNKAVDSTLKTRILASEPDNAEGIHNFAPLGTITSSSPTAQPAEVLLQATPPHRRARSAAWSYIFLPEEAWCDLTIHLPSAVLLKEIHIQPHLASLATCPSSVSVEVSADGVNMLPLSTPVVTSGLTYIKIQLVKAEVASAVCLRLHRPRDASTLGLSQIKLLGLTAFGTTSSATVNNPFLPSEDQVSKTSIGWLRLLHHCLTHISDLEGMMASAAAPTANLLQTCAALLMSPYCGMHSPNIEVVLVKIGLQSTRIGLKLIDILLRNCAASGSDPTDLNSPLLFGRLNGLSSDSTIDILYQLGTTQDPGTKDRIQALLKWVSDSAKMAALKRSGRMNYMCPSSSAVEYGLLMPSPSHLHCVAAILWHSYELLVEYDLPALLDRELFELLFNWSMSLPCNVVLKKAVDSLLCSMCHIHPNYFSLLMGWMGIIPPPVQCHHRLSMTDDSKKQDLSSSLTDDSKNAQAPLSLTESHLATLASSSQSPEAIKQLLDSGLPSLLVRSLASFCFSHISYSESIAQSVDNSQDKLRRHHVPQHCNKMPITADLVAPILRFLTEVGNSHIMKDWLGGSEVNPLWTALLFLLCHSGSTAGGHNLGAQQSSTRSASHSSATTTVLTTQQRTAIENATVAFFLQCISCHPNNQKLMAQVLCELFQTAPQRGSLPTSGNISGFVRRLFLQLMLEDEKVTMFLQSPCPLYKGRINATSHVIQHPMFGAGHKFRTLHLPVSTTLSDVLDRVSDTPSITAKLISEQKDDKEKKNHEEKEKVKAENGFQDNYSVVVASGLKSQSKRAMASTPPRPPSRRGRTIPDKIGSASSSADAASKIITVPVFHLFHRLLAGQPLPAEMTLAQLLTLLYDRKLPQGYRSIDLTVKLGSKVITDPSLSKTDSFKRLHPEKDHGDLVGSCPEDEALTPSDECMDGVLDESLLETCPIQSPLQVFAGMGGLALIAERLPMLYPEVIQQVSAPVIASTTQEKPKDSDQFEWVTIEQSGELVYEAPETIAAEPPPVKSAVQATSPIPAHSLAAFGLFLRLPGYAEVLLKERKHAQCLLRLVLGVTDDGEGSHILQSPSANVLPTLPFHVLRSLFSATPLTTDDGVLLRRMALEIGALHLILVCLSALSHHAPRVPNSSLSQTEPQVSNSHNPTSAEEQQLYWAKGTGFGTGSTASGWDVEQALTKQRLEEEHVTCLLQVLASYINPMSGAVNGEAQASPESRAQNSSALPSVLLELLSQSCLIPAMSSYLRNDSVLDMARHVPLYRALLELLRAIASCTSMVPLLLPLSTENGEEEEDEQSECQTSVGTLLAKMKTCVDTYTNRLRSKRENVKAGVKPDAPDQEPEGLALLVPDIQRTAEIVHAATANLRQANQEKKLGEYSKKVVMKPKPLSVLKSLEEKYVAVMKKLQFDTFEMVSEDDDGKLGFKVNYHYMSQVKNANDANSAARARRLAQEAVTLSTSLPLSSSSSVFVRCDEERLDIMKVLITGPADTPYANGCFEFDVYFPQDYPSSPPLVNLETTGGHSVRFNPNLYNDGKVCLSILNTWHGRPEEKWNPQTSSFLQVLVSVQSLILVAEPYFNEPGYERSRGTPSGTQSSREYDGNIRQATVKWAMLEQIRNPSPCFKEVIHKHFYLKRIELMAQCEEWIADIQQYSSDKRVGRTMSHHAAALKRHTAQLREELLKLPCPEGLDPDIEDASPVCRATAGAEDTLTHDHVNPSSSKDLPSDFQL

In the case of “3×FLAG-tagged full-length mouse BIRC6, O88738 1-4882”, the stoichiometry N [1] is reported as 2.

B1: Smac/DIABLO, endogenous, co-purified with FLAG-BIRC6 from HEK293F cells (natural protein)
chain: AVPIAQKSEPHSLSSEALMRRAVSLVTDSTSTFLSQTTYALIEAITEYTKAVYTLTSLYRQYTSLLGKMNSEEEDEVWQVIIGARAEMTSKHQEYLKLETTWMTAVGLSEMAAEAAYQTGADQASITARNHIQLVKLQVEEVHQLSRKAETKLAEAQIEELRQKTQEEGEERAESEQEAYLRED
B1 was tested, and the binding result [2] was “binds” and the “stoichiometry N” value [3] was 2.
